B1: Tumor susceptibility gene 101 protein (Homo sapiens), Q99816 (parent)
chain: MAVSESQLKKMVSKYKYRDLTVRETVNVITLYKDLKPVLDSYVFNDGSSRELMNLTGTIPVPYRGNTYNIPICLWLLDTYPYNPPICFVKPTSSMTIKTGKHVDANGKIYLPYLHEWKHPQSDLLGLIQVMIVVFGDEPPVFSRPISASYPPYQATGPPNTSYMPGMPGGISPYPSGYPPNPSGYPGCPYPPGGPYPATTSSQYPSQPPVTTVGPSRDGTISEDTIRASLISAVSDKLRWRMKEEMDRAQAELNALKRTEEDLKKGHQKLEEMVTRLDQEVAEVDKNIELLKKKDEELSSALEKMENQSENNDIDEVIIPTAPLYKQILNLYAEENAIEDTIFYLGEALRRGVIDLDVFLKHVRLLSRKQFQLRALMQKARKTAGLSDLY

Variants of: B1
Details: with hgs_human HGS

Variant | effect of a mutation on the interaction
P320L;P323L | increasing interaction strength
N45A | decreasing interaction strength
V89A | decreasing interaction strength
Y63A | decreasing interaction
M95A | decreasing interaction strength
